Assay results as given in patent US20170267783A1 (published 2017).
Numbering of substitutions follows the chain as printed.

B1: TR01H002-E22Hh/GLS3108-k0/GL4-E22Hk/H0000-E22L (bispecific antibody, human IgG1, kappa, L234A L235A, N297A)
heavy 1: QVQLVESGGGVVQPGRSLRLSCAASGFTFSNAWMHWVRQAPGKGLEWVAQIKAKSNNYKKYYAESVKGRFTISRDDSKNSLYLQMNSLKTEDTAVYYCRYVHYYYYYGVQAWGQGTTVTVSSASTKGPSVFPLAPSSKSTSGGTAALGCLVKDYFPEPVTVSWNSGALTSGVHTFPAVLQSSGLYSLSSVVTVPSSSLGTQTYICNVNHKPSNTKVDKKVEPKSCDKTHTCPPCPAPEAAGGPSVFLFPPKPKDTLMISRTPEVTCVVVDVSHEDPEVKFNWYVDGVEVHNAKTKPREEQYASTYRVVSVLTVLHQDWLNGKEYKCKVSNKALPAPIEKTISKAKGQPREPQVYTLPPSRCELTKNQVSLSCAVKGFYPSDIAVEWESNGQPENNYKTTPPVLDSDGSFFLVSKLTVDKSRWQQGNVFSCSVMHEALHNHYTQKSLSLSPDYKDDDDK
light 1: DIVMTQSPLSLPVTPGEPASISCRSSQSLVHSNRNTYLSWYQQKPGQAPRLLIYKVSNRFSGVPDRFSGSGSGTDFTLKISRVEAEDVGVYYCGQGTQVPYTFGQGTKLEIKRTVAAPSVFIFPPSDEQLKSGTASVVCLLNNFYPREAKVQWKVDNALQSGNSQESVTEQDSKDSTYSLSSTLTLSKADYEKHKVYACEVTHQGLSSPVTKSFNRGEC
heavy 2: DIVMTQSPLSLPVTPGEPASISCRSSQSLVHSNRNTYLHWYQQKPGQAPRLLIYKVSNRFSGVPDRFSGSGSGTDFTLKISRVEAEDVGVYYCSQNTHVPPTFGQGTKLEIKSSASTKGPSVFPLAPSSKSTSGGTAALGCLVKDYFPEPVTVSWNSGALTSGVHTFPAVLQSSGLYSLSSVVTVPSSSLGTQTYICNVNHKPSNTKVDKKVEPKSCDKTHTCPPCPAPEAAGGPSVFLFPPKPKDTLMISRTPEVTCVVVDVSHEDPEVKFNWYVDGVEVHNAKTKPREEQYASTYRVVSVLTVLHQDWLNGKEYKCKVSNKALPAPIEKTISKAKGQPREPQVCTLPPSRDELTKNQVSLWCLVKGFYPSDIAVEWESNGQPENNYKTTPPVLDSDGSFFLYSKLTVDKSRWQQGNVFSCSVMHEALHNHYTQKSLSLSPHHHHHHHH
light 2: QVQLVQSGAEVKKPGASVKVSCKASGYTFTDYEMHWIRQPPGQGLEWIGAIDPKTGDTAYSQKFKGRVTLTADKSTSTAYMELSSLTSEDTAVYYCTRFYSYTYWGQGTLVTVSSASVAAPSVFIFPPSDEQLKSGTASVVCLLNNFYPREAKVQWKVDNALQSGNSQESVTEQDSKDSTYSLSSTLTLSKADYEKHKVYACEVTHQGLSSPVTKSFNRGEC
notes: CD3 arm + GPC3 arm with VH/VL exchanged
B2: TR01H067-E2702GsKsc/GCH054-E2704sEpsc/L0212-k0 (bispecific antibody, human IgG4 S228P, kappa, N297A)
heavy 1: QVQLVESGGGLVQPGRSLRLSCAASGFTFSNAWMHWVRQAPGKGLEWVAQIKDKSQNYATYYAESVKGRFTISRDDSKNSLYLQMNSLKTEDTAVYYCRYVHYAASYGVDAWGQGTTVTVSSASTKGPSVFPLAPCSRSTSESTAALGCLVKDYFPEPVTVSWNSGALTSGVHTFPAVLQSSGLYSLSSVVTVPSSSLGTKTYTCNVDHKPSNTKVDKRVESKYGPPCPPCPAPEFRGGPKVFLFPPKPKDTLMISRTPEVTCVVVDVSQEDPEVQFNWYVDGVEVHNAKTKPREEQFASTYRVVSVLTVLHQDWLNGKEYKCKVSNKGLPSSIEKTISKAKGQPREPQVYTLPPSQKEMTKNQVSLTCLVKGFYPSDIAVEWESNGQPENNYKTTPPVLDSDGSFFLYSKLTVDKSRWQEGNVFSCSVMHEALHNRYTQKSLSLSP
heavy 2: QVQLVQSGAEVKKPGASVTVSCKASGYTFTDYEMHWIRQPPGEGLEWIGAIDGETPDTAYSEKFKGRVTLTADKSTSTAYMELSSLTSEDTAVYYCTRFYSYTYWGQGTLVTVSSASTKGPSVFPLAPCSRSTSESTAALGCLVKDYFPEPVTVSWNSGALTSGVHTFPAVLQSSGLYSLSSVVTVPSSSLGTQTYTCNVDHKPSNTKVDKRVESKYGPPCPPCPAPEFRGGPKVFLFPPKPKDTLMISRTPEVTCVVVDVSQEDPEVQFNWYVDGVEVHNAKTKPREEQFASTYRVVSVLTVLHQDWLNGKEYKCKVSNKGLPSSIEKTISKAKGQPREPQVYTLPPSQEEMTKNQVSLTCLVKGFYPSDIAVEWESNGQPENNYKTTPPVLDSDGSFFLYSKLTVDKSRWQEGNVFSCSVMHEALHNHYTQESLSLSP
light: B1 light 1 with S25P, L29P, S39H, G94Y
B3: TR01H067-E2702GsKsc/GCH054-E2704sEpsc/L0222-k0 (bispecific antibody, human IgG4 S228P, kappa, N297A)
heavy 1: B2 heavy 1
heavy 2: B2 heavy 2
light: B1 light 1 with L29P, L38I, S39Q, G94Y
B4: TR01H109-E2702GsKsc/GCH094-E2704sEpsc/L0011-k0 (bispecific antibody, human IgG4 S228P, kappa, N297A)
heavy 1: B2 heavy 1 with Y62V, S106G
heavy 2: B2 heavy 2 with I37V, P40A, I48M
light: B1 light 1 with S28P, S39H
B5: TR01H040-E2702GsKsc/H0610-E2704sEpsc/L0201-k0 (bispecific antibody, human IgG4 S228P, kappa, N297A)
heavy 1: B2 heavy 1 with D75A, L81I, A104S
heavy 2: B2 heavy 2 with T19K, E43Q, E54K, E62Q
light: B1 light 1 with S28P, L29P, S39H
B6: TR01H082-E2702GsKsc/GCH094-E2704sEpsc/L0011-k0 (bispecific antibody, human IgG4 S228P, kappa, N297A)
heavy 1: B2 heavy 1 with S106G
heavy 2: B2 heavy 2 with I37V, P40A, I48M
light: B1 light 1 with S28P, S39H
B7: TR01H113-E2702sKsc/GCH065-E2704sEpsc/L0011-k0 (bispecific antibody, human IgG4 S228P, kappa, N297A)
heavy 1: B2 heavy 1 with L11V, R16G, Y62V, D75A, L81I, S106G, A111I, R437H
heavy 2: B2 heavy 2 with E54P
light: B1 light 1 with S28P, S39H
B8: TR01H067-E2702GsKsc/GCH054-E2704sEpsc/L0201-k0 (bispecific antibody, human IgG4 S228P, kappa, N297A)
heavy 1: B2 heavy 1
heavy 2: B2 heavy 2
light: B1 light 1 with S28P, L29P, S39H
B9: TR01H082-E2702GsKsc/GCH094-E2704sEpsc/L0201-k0 (bispecific antibody, human IgG4 S228P, kappa, N297A)
heavy 1: B2 heavy 1 with S106G
heavy 2: B2 heavy 2 with I37V, P40A, I48M
light: B1 light 1 with S28P, L29P, S39H
B10: TR01H113-E2702GsKsc/GCH065-E2704sEpsc/L0011-k0 (bispecific antibody, human IgG4 S228P, kappa, N297A)
heavy 1: B2 heavy 1 with L11V, R16G, Y62V, D75A, L81I, S106G, A111I
heavy 2: B2 heavy 2 with E54P
light: B1 light 1 with S28P, S39H
B11: TR01H109-E2702GsKsc/GCH065-E2704sEpsc/L0011-k0 (bispecific antibody, human IgG4 S228P, kappa, N297A)
heavy 1: B2 heavy 1 with Y62V, S106G
heavy 2: B2 heavy 2 with E54P
light: B1 light 1 with S28P, S39H
B12: TR01H040-E2702GsKsc/H0610-E2704sEpsc/L0203-k0 (bispecific antibody, human IgG4 S228P, kappa, N297A)
heavy 1: B2 heavy 1 with D75A, L81I, A104S
heavy 2: B2 heavy 2 with T19K, E43Q, E54K, E62Q
light: B1 light 1 with L29P, L38I, S39H
B13: TR01H082-E2702GsKsc/GCH065-E2704sEpsc/L0011-k0 (bispecific antibody, human IgG4 S228P, kappa, N297A)
heavy 1: B2 heavy 1 with S106G
heavy 2: B2 heavy 2 with E54P
light: B1 light 1 with S28P, S39H
B14: TR01H113-E2702GsKsc/GCH094-E2704sEpsc/L0011-k0 (bispecific antibody, human IgG4 S228P, kappa, N297A)
heavy 1: B2 heavy 1 with L11V, R16G, Y62V, D75A, L81I, S106G, A111I
heavy 2: B2 heavy 2 with I37V, P40A, I48M
light: B1 light 1 with S28P, S39H
B15: TR01H084-E2702GsKsc/GCH094-E2704sEpsc/L0011-k0 (bispecific antibody, human IgG4 S228P, kappa, N297A)
heavy 1: B2 heavy 1 with L11V, R16G, D75A, L81I, S106G, A111I
heavy 2: B2 heavy 2 with I37V, P40A, I48M
light: B1 light 1 with S28P, S39H
B16: TR01H084-E2702GsKsc/GCH065-E2704sEpsc/L0011-k0 (bispecific antibody, human IgG4 S228P, kappa, N297A)
heavy 1: B2 heavy 1 with L11V, R16G, D75A, L81I, S106G, A111I
heavy 2: B2 heavy 2 with E54P
light: B1 light 1 with S28P, S39H
B17: TR01H040-E2702GsKsc/H0610-E2704sEpsc/L0000-k0 (bispecific antibody, human IgG4 S228P, kappa, N297A)
heavy 1: B2 heavy 1 with D75A, L81I, A104S
heavy 2: B2 heavy 2 with T19K, E43Q, E54K, E62Q
light: B1 light 1 with S39H

Molecular target: T1, soluble human CD3ε chain (human, UniProt P07766 23-126)
T1 construct: also called CD3 epsilon
Test: SPR (Biacore)

T1 sequence (P07766 23-126 limits assumed): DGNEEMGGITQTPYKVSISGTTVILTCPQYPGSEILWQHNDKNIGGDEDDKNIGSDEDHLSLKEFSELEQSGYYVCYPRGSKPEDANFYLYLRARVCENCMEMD

Row | Kd | Binder
1 | 4.76 nM | B1

Molecular target: extracellular matrix (ECM; BD Matrigel)
Test: ECL on Matrigel-coated plate, signal divided by that of MRAH-G1d/MRAL-k0

Row | ECM binding ratio (standard = 1) (ratio to standard antibody) | Binder
2 | 3.3 | B2
3 | 0.6 | B3
4 | 0.4 | B4
5 | 0.8 | B5
6 | 0.7 | B6
7 | 0.3 | B7
8 | 0.5 | B8
9 | 1.1 | B9
10 | 2.5 | B10
11 | 0.7 | B11
12 | 0.8 | B12
13 | 1.7 | B13
14 | 1.6 | B14
15 | 1.2 | B15
16 | 1.3 | B16
17 | 0.8 | B17
